Experimental findings from patent US20250376519A1 (JIANGSU HENGRUI PHARMACEUTICALS, published 2025) are described below.

One test has as its target T1, CD3 on Jurkat cells (human).
T1 construct: whole, on cells; also called CD3-expressing Jurkat cells
The test is described as follows: flow cytometry, Jurkat cells. Background: Flow cytometry measures light scatter and fluorescence of single cells or particles in a stream.

Another test concerns the target T2, human DLL3 on cells (human, UniProt Q9NYJ7 27-618).
T2 construct: Endogenous on H1184 and SHP77; Cell line is named under assay; also called H1184; DLL3/H82
T2 sequence: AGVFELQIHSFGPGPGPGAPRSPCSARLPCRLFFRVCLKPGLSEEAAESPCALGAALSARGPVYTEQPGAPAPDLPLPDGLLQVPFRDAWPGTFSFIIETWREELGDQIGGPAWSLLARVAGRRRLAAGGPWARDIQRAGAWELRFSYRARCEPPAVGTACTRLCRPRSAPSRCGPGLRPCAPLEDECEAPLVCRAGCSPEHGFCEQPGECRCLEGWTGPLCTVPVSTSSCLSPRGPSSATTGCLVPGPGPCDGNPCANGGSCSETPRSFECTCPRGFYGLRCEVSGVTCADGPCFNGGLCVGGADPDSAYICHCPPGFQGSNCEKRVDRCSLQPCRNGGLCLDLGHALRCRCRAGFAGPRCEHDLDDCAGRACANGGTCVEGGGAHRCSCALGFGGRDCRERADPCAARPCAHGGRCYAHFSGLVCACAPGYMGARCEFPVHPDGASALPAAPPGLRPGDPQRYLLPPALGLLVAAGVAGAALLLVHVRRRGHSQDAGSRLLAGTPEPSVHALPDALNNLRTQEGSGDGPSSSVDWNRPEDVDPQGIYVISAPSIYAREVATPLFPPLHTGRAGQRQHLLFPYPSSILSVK
The experiment in a line: flow cytometry, hDLL3/CHO-s cells. The procedure: (§1) The plates were centrifuged at 300 g for 5 min, and the supernatant was removed. Different concentrations of test antibodies were added at 100 μL/well. The plates were incubated in the dark in a refrigerator at 4° C. for 1 h. After 3 centrifugal washes at 300 g, working concentrations of APC anti-human IgG Fc (BioLegend, 410712) or PE F(ab′)2-goat anti-human IgG (invitrogen, H10104) were added. The plates were incubated in the dark in a refrigerator at 4° C. for 40 min. After 3 centrifugal washes at 300 g, the geometric mean fluorescence intensity was measured on an Invitrogen flow cytometer, and the EC50 values for the binding of the antibodies to DLL3-expressing cells were calculated.

For test [1], the target named is T3, cynomolgus monkey DLL3 on CHO-s cells (cynomolgus monkey, UniProt Q9NYJ7 27-618 (human entry)).
T3 construct: also called cynoDLL3/CHO-s; CynoDLL3/CHO-S
T3 chain: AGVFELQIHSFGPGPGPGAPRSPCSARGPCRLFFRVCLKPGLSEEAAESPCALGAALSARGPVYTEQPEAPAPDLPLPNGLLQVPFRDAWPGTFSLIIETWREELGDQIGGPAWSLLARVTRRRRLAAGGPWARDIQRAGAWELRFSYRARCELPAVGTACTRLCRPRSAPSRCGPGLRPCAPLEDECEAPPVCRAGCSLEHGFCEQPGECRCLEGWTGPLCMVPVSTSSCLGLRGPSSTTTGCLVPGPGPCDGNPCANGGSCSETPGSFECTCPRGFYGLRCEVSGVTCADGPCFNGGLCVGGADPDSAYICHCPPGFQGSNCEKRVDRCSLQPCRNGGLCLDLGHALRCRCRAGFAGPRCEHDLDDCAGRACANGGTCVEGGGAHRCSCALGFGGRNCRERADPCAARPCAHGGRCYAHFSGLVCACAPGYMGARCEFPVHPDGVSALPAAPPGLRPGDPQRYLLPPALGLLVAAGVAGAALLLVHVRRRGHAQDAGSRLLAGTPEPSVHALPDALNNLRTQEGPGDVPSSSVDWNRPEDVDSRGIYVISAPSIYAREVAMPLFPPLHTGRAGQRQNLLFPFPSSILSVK
The test is described as follows: flow cytometry, cynoDLL3/CHO-s cells. The procedure: as §1

In another test the target is T4, DLL1 (ACRO, DL1-H52H8) (human, UniProt O00548 18-540).
T4 construct: Bought; also called human DLL1
T4 sequence: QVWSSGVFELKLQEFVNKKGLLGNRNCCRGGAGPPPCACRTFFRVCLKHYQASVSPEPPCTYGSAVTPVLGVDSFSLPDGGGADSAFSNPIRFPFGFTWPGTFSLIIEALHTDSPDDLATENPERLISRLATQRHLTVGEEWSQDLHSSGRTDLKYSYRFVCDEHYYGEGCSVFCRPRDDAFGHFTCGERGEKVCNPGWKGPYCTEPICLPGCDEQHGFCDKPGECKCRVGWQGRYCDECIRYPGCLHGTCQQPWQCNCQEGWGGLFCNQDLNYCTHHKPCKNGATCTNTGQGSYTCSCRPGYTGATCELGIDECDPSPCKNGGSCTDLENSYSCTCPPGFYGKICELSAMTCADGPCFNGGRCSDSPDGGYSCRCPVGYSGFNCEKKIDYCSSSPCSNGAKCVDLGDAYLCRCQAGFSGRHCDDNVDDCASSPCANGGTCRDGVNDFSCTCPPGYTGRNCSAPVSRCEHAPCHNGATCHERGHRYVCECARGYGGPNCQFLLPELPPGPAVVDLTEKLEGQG
The test is described as follows: ELISA, DLL1 coated at 1 µg/mL, detection with anti-human IgG (H+L)-HRP, OD450. The procedure:
(§2) DLL1 (ACRO, DL1-H52H8, 1 μg/mL) and DLL4 (ACRO, DL4-H5227, 1 μg/mL) were plated at 100 μL/well, and the plates were incubated overnight at 4° C. The plates were washed 3 times with 250 μL of PBST solution (PBS containing 0.1% Tween 20) per well. The plates were blocked with 250 μL of 5% milk per well at 37° C. for 2 h. The plates were washed 3 times with 250 μL of PBST solution per well. Test antibodies (maximum concentration 100 nM, serially diluted 4-fold) were added, and the plates were incubated at 37° C. for 1 h. The plates were washed 6 times with 250 μL of PBST solution per well. […] The plates were washed 6 times with 250 μL of PBST solution per well. TMB (KPL, 5120-0077) substrate solution was added at 100 μL/well, and color development was performed at room temperature for 5-10 min. 1 M H₂SO₄ was added at 100 μL/well to stop the color development, and microplate reader (Molecular Devices, VERSA max) readings at 450 nm were taken.
A general note: An ELISA detects its analyte on a solid surface through an enzyme-linked reagent.

For another test, the target named is T5, DLL4 (ACRO, DL4-H5227) (human, UniProt Q9NR61 27-524).
T5 construct: Bought; also called human DLL4
T5 sequence (Q9NR61 27-524 limits assumed): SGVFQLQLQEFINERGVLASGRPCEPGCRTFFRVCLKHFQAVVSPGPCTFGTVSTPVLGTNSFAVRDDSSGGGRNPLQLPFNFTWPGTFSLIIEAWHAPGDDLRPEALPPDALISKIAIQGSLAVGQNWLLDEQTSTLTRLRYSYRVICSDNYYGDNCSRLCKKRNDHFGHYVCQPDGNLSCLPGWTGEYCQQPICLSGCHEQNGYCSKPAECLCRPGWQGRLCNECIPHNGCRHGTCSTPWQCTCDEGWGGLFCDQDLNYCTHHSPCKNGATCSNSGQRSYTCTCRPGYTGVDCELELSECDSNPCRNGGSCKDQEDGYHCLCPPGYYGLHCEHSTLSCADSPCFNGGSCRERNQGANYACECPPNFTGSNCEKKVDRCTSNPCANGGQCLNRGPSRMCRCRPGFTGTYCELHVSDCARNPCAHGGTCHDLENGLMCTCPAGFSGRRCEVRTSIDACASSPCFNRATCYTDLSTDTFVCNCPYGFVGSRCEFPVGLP
The test is described as follows: ELISA, DLL4 coated at 1 µg/mL, detection with anti-human IgG (H+L)-HRP, OD450. The procedure: as §2

In general, EC50 refers to the concentration that produces a half-maximal response.

T1 sequence (P07766 23-207, chain 1 of 4): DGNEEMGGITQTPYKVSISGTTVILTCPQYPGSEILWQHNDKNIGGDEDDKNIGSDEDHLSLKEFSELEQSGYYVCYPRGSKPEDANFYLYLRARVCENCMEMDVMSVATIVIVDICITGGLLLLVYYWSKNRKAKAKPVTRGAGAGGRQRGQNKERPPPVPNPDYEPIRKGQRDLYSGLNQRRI
T1 sequence (P09693 23-182, chain 2 of 4, further chain): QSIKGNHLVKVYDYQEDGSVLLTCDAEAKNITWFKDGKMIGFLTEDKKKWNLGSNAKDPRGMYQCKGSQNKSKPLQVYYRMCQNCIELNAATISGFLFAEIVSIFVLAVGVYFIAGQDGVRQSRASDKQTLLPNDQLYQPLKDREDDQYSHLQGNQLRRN
T1 sequence (P04234 22-171, chain 3 of 4, further chain): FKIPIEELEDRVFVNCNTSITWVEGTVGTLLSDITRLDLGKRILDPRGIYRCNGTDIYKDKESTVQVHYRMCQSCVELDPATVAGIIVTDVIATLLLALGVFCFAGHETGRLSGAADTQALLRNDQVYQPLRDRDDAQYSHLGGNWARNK
T1 sequence (P20963 22-164, chain 4 of 4, further chain): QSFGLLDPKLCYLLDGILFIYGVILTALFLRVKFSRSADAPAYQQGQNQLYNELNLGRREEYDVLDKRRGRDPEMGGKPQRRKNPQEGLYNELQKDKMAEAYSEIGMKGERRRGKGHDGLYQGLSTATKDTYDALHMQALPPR

B1: hu110-I2C-Y body (bispecific antibody)
light: NIVMTQSPKSLAVSLGERATINCKASENVGIFVSWYQQKPGQSPKLLIYGASNRYTGVPDRFSGSGSATDFTLTISSLQAEDVADYYCGQSHSYPLTFGQGTKLEIKRTVAAPSVFIFPPSDEQLKSGTASVVCLLNNFYPREAKVQWKVDNALQSGNSQESVTEQDSKDSTYSLSSTLTLSKADYEKHKVYACEVTHQGLSSPVTKSFNRGEC
heavy: EVQLVQSGAEVKKPGASVKVSCKTSGYTFTDYYMNWVRQAPGQSLEWMGIINPYQGGTSYTQKFKGRVTITVDKSASTAYMELSSLRSEDTAVYYCARHFYDSSYLTYSTMDYWGQGTTVTVSSASTKGPSVFPLAPSSKSTSGGTAALGCLVKDYFPEPVTVSWNSGALTSGVHTFPAVLQSSGLYSLSSVVTVPSSSLGTQTYICNVNHKPSNTKVDKKVEPKSCDKTHTCPPCPAPEAAGGPSVFLFPPKPKDTLMISRTPEVTCVVVDVSHEDPEVKFNWYVDGVEVHNAKTKPREEQYNSTYRVVSVLTVLHQDWLNGKEYKCKVSNKALPAPIEKTISKAKGQPREPQVCTLPPSREEMTKNQVSLSCAVKGFYPSDIAVEWESNGQPENNYKTTPPVLDSDGSFFLVSKLTVDKSRWQQGNVFSCSVMHEALHNHYTQKSLSLSPGK
chain: not shown
notes: Format 2 (Y body: DLL3 Fab-Fc hole + CD3 scFv-Fc knob)
In the case of B1, the EC50 with CD3 on Jurkat cells amounted to 3.83 nM; with human DLL3 on cells it was 4.52 nM; in test [1], 4.92 nM. For the same molecule, the binding result in the test with DLL1 (ACRO, DL1-H52H8) was “no binding”; with DLL4 (ACRO, DL4-H5227) it was “no binding (tested: log[antibody, nM] 2 (100 nM))”.

B2: hu110-S107E-hot Ig (bispecific antibody)
light 1: NIVMTQSPKSLAVSLGERATINCKASENVGIFVSWYQQKPGQSPKLLIYGASNRYTGVPDRFSGSGSATDFTLTISSLQAEDVADYYCGQSHSYPLTFGQGTKLEIKGGGGSSGAPRFLTRPKASVVSVGKDATLSCQIVGNPFPQVSWEKDKQPVTAGVRFRLAQDGDLYRLKILDLQLSDSGQYVCRARNAHGEAFACLGLQVDAEA
heavy 1: EVQLVQSGAEVKKPGASVKVSCKTSGYTFTDYYMNWVRQAPGQSLEWMGIINPYQGGTSYTQKFKGRVTITVDKSASTAYMELSSLRSEDTAVYYCARHFYDSSYLTYSTMDYWGQGTTVTVSSGGGGSGIPPKIECLPIDISIDEGKVLTVASAFTGEPTPEVTWSTGGRKIHSQEQGRFHIENTDDSTTLTIKDVQKQDGGLYTLTLRNEFGSDSATVNIHIRSIDKTHTCPPCPAPEAAGGPSVFLFPPKPKDTLMISRTPEVTCVVVDVSHEDPEVKFNWYVDGVEVHNAKTKPREEQYNSTYRVVSVLTVLHQDWLNGKEYKCKVSNKALPAPIEKTISKAKGQPREPQVCTLPPSREEMTKNQVSLSCAVKGFYPSDIAVEWESNGQPENNYKTTPPVLDSDGSFFLVSKLTVDKSRWQQGNVFSCSVMHEALHNHYTQKSLSLSPGK
heavy 2: not shown
light 2: not shown
notes: Format 1 (Hot-Ig, Titin/Obscurin-replaced DLL3 Fab), DLL3 x CD3
Regarding B2, the results for the EC50 (with CD3 on Jurkat cells; with human DLL3 on cells; in test [1]) were 7.74 nM, 5.07 nM and 5.01 nM, respectively. Besides, the binding result in the test with DLL1 (ACRO, DL1-H52H8) is “no binding”; in the test with DLL4 (ACRO, DL4-H5227), “no binding (tested: log[antibody, nM] 2 (100 nM))”.

B3: hu110-I2C-hot Ig (bispecific antibody)
light 1: NIVMTQSPKSLAVSLGERATINCKASENVGIFVSWYQQKPGQSPKLLIYGASNRYTGVPDRFSGSGSATDFTLTISSLQAEDVADYYCGQSHSYPLTFGQGTKLEIKGGGGSSGAPRFLTRPKASVVSVGKDATLSCQIVGNPFPQVSWEKDKQPVTAGVRFRLAQDGDLYRLKILDLQLSDSGQYVCRARNAHGEAFACLGLQVDAEA
heavy 1: EVQLVQSGAEVKKPGASVKVSCKTSGYTFTDYYMNWVRQAPGQSLEWMGIINPYQGGTSYTQKFKGRVTITVDKSASTAYMELSSLRSEDTAVYYCARHFYDSSYLTYSTMDYWGQGTTVTVSSGGGGSGIPPKIECLPIDISIDEGKVLTVASAFTGEPTPEVTWSTGGRKIHSQEQGRFHIENTDDSTTLTIKDVQKQDGGLYTLTLRNEFGSDSATVNIHIRSIDKTHTCPPCPAPEAAGGPSVFLFPPKPKDTLMISRTPEVTCVVVDVSHEDPEVKFNWYVDGVEVHNAKTKPREEQYNSTYRVVSVLTVLHQDWLNGKEYKCKVSNKALPAPIEKTISKAKGQPREPQVCTLPPSREEMTKNQVSLSCAVKGFYPSDIAVEWESNGQPENNYKTTPPVLDSDGSFFLVSKLTVDKSRWQQGNVFSCSVMHEALHNHYTQKSLSLSPGK
heavy 2: not shown
light 2: not shown
notes: as for B2
As to B3, the EC50 with CD3 on Jurkat cells was 3.27 nM; with human DLL3 on cells it was 4.91 nM; in test [1] it was 4.92 nM. Also, the binding result is “no binding” with DLL1 (ACRO, DL1-H52H8) and “no binding (tested: log[antibody, nM] 2 (100 nM))” in the test with DLL4 (ACRO, DL4-H5227).
